PMC10439073

Columns and labels:
Assay in all cases: SPR
[1] = molecular target: US-bevacizumab (human)
[2] = molecular target: BAT1706 (human)
[3] = molecular target: EU-bevacizumab (human)

Kd [1]: 983 nM
Kd [2]: 769 nM
Kd [3]: 951 nM
Substance: FcγRIIIa-158F (from UniProt P08637 17-208) (receptor)
